Data set [1] deals with taxol-stabilized microtubules. Nature of the data set: single-molecule TIRF binding density on microtubules.
Data set [2] addresses Dyn^WB-M, monomeric S. cerevisiae dynein construct with a Walker B mutation in AAA3 (S. cerevisiae). Nature of the data set: cryo-EM structure.
The target of data set [3] is Dyn^wt-M, monomeric S. cerevisiae cytoplasmic dynein construct lacking GST, wild type AAA3 (S. cerevisiae) (UniProt P36022). Nature of the data set: cryo-EM structure.
The data set “cryo-EM structure” deals with the molecule itself. As to the kind of experiment: cryo-EM structure.

Sequence of Dyn^wt-M, monomeric S. cerevisiae cytoplasmic dynein construct lacking GST, wild type AAA3 (S. cerevisiae) (P36022 whole entry): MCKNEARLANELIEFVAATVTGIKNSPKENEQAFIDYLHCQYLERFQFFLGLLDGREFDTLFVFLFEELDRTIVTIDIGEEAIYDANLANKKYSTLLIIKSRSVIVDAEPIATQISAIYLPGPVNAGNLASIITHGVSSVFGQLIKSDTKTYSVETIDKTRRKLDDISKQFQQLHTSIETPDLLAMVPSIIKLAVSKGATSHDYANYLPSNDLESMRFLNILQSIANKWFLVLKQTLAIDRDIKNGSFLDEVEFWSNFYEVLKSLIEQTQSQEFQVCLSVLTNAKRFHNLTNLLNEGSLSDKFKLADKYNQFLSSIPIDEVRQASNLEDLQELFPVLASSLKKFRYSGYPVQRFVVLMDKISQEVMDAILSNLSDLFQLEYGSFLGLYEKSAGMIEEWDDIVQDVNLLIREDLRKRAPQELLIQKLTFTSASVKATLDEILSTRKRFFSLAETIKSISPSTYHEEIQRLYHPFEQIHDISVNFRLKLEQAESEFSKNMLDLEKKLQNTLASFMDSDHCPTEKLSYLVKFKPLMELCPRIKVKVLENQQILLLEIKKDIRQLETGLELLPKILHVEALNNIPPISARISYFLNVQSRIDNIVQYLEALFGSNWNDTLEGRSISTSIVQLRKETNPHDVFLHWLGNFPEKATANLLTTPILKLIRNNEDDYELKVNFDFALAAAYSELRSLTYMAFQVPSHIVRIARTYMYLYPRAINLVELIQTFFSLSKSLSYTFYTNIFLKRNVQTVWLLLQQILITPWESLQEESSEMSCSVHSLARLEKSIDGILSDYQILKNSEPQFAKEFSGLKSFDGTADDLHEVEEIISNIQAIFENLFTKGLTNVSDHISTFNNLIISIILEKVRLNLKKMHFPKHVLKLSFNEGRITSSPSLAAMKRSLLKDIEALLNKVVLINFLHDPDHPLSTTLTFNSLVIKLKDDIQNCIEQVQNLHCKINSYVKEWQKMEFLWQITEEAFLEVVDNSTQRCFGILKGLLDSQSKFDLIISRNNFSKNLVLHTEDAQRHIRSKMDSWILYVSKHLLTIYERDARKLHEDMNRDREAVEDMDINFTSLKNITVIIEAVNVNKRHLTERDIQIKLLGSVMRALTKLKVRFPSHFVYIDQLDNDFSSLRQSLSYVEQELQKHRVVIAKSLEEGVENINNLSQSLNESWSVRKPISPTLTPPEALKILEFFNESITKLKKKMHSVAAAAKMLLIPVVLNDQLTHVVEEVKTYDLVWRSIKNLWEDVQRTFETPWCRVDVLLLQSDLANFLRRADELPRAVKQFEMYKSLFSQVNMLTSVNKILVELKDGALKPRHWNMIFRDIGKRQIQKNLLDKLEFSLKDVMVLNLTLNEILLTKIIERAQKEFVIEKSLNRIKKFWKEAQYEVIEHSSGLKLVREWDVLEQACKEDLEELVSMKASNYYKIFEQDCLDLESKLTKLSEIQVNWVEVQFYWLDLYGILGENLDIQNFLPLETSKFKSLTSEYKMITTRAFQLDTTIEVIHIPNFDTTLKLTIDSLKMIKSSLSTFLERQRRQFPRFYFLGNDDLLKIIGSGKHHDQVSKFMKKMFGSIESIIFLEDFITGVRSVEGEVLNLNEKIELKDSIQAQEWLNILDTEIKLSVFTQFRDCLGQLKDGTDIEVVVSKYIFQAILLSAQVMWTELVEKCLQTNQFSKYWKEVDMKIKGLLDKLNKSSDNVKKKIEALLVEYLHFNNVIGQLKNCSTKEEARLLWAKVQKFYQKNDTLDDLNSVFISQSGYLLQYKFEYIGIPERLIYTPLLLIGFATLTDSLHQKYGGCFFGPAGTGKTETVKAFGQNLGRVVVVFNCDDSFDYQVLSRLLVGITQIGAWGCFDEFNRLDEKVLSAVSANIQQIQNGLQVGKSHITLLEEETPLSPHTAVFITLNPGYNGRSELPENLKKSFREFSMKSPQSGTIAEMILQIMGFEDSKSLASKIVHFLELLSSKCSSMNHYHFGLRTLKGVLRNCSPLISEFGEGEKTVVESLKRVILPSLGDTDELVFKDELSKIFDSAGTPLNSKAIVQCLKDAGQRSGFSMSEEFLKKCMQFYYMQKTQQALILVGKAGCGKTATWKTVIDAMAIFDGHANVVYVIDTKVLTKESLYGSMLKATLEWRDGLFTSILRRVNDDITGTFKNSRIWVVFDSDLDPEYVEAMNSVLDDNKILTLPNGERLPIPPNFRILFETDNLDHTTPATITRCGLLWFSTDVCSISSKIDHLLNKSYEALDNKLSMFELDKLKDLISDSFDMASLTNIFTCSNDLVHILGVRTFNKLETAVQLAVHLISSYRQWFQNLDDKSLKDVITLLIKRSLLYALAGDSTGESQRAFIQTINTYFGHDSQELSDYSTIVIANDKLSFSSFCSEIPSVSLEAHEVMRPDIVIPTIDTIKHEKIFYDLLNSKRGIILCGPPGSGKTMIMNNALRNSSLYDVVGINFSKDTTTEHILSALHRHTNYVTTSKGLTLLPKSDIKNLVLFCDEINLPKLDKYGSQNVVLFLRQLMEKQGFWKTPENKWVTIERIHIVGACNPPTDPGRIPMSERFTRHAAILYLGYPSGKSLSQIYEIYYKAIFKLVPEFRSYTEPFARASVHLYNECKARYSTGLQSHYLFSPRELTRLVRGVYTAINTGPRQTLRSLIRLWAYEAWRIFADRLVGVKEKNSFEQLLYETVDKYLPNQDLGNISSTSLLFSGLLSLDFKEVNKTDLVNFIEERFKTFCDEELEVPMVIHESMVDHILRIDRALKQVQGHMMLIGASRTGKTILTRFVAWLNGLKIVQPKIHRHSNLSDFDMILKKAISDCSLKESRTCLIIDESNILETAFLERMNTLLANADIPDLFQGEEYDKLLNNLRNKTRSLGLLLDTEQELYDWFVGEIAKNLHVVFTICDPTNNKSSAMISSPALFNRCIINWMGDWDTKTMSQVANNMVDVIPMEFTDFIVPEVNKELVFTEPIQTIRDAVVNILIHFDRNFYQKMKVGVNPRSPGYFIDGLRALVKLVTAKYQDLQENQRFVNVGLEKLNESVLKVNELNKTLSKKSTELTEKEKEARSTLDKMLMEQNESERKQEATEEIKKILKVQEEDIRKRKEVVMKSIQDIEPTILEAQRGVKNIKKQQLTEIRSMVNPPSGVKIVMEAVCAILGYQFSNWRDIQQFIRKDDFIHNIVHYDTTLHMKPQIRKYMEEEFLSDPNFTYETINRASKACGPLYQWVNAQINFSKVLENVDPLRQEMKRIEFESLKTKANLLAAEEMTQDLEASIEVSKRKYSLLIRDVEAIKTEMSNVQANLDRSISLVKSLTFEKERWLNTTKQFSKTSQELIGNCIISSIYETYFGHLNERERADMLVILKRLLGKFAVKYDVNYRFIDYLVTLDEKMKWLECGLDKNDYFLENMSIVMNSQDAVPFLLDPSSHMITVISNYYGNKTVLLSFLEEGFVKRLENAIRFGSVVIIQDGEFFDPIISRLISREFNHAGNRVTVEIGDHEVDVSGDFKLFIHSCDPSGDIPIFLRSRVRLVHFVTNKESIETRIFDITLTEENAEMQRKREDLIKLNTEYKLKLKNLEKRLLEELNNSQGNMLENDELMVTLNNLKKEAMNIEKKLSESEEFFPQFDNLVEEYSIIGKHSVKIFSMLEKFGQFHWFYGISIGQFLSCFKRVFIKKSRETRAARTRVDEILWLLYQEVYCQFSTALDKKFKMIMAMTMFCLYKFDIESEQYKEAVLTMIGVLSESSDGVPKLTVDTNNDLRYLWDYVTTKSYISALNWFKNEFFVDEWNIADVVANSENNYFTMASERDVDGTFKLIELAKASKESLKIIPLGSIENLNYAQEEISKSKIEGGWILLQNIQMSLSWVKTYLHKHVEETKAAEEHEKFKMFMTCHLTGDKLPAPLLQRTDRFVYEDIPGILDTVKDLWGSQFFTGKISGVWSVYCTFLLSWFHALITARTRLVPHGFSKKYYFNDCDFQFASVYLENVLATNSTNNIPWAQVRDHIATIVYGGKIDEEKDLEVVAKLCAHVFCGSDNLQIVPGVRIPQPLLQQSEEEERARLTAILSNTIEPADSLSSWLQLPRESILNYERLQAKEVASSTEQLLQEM

With “Dyn^WB, GST-dimerized S. cerevisiae dynein construct with a Walker B mutation in AAA3 (domain or fragment)”, the decrease of binding density on MTs with 300 nM Lis1 against no Lis1 in data set [1] worked out at 42%.

In data set [1], “Dyn^WA, GST-dimerized S. cerevisiae dynein construct with a Walker A mutation in AAA3 (domain or fragment)” had an increase of binding density on MTs with 300 nM Lis1 against no Lis1 of 62%.

B1: Lis1 (S. cerevisiae), dimer (natural protein, UniProt P39946 1-494, looked up)
chain: MTNWQQQLPLTDTQKNELDKSVLRYLNWNYKQTVRHEHAQDYESVRHAIVTLSGFLLQESVDRQEFISNNDTSNESMVDIDELLLPKKWNSIVRLQKKIIELEQNTETLVSQIKDLNTQVSELAQFKPTTSNGTSAHNVLKWIPRNLPSCLINVESSVTSVKLHPNLPIVFVATDHGKLYAFDLFNYTIPLASLQSHTKAITSMDVLFTNYTNSSKKNYLVIVTASKDLQIHVFKWVSEECKFQQIRSLLGHEHIVSAVKIWQKNNDVHIASCSRDQTVKIWDFHNGWSLKTFQPHSQWVRSIDVLGDYIISGSHDTTLRLTHWPSGNGLSVGTGHEFPIEKVKFIHFIEDSPEIRFRTPSTDRYKNWGMQYCVSASRDRTIKIWEIPLPTLMAHRAPIPNPTDSNFRCVLTLKGHLSWVRDISIRGQYLFSCADDKSVRCWDLNTGQCLHVWEKLHTGFVNCLDLDVDFDSNVTPRQMMVTGGLDCKSNVFMR
In data set [2], B1 registered a stoichiometry N (Lis1 β-propellers per dynein) of 2. In data set [3], the stoichiometry N (Lis1 β-propeller per dynein) came to 1. The binding result in “cryo-EM structure” is recorded as “binds”.

The values above are taken from publication PMC5625841 (Cell, 2017).
